The target in test [1] is T1, Human Id1: Histidine (human, UniProt P41134 1-155, limits assumed).
T1 construct: Fusion protein made in E. coli from vector pGW07; also called h-Id1: his; not shown: His tag
T1 sequence (looked up): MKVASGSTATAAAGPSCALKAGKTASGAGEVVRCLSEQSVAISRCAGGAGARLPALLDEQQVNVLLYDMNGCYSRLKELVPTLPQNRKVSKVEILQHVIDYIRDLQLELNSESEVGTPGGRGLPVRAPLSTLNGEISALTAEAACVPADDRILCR
Put plainly: ELISA, Ab 0.005 µg/ml.

For test [2], the target named is T2, Mouse Id2: Histidine (mouse, UniProt P41136 1-134, limits assumed).
T2 construct: Fusion protein made in E. coli from vector pGW07; also called m-Id2: His; not shown: His tag
T2 sequence (looked up): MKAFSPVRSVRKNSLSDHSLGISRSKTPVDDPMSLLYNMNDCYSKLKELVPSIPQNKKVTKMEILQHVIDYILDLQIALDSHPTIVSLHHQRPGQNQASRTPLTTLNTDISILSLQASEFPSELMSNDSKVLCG
Put plainly: ELISA, Ab 0.005 µg/ml.

In test [3] the target is T3, Mouse Id3: Histidine (mouse, UniProt P41133 1-119).
T3 construct: Fusion protein made in E. coli from vector pGW07; also called m-Id3: His; Mouse Id3 (coated wells); not shown: His tag
T3 sequence: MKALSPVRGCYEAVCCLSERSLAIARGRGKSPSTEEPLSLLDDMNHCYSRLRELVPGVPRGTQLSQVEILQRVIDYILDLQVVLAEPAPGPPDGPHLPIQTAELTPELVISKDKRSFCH
Put plainly: ELISA, Ab 0.005 µg/ml. (In general: An ELISA detects its analyte on a solid surface through an enzyme-linked reagent.)

The target in test [4] is T4, Human Id3: Histidine (human, UniProt Q02535 1-119 at identity 1.00)).
T4 construct: Fusion protein made in E. coli from vector pGW07; also called h-Id3: His; Human Id3 (coated wells); not shown: His tag
T4 chain: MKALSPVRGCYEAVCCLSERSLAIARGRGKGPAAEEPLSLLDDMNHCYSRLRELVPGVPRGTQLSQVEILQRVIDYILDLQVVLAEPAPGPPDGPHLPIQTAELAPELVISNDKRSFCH
In words: ELISA, Ab 0.005 µg/ml.

Test [5] deals with T5, Mouse Id1: Histidine (mouse, UniProt P20067-2 1-148, limits assumed).
T5 construct: Fusion protein made in E. coli from vector pGW07; also called m-Id1-His; not shown: His tag
T5 sequence (looked up): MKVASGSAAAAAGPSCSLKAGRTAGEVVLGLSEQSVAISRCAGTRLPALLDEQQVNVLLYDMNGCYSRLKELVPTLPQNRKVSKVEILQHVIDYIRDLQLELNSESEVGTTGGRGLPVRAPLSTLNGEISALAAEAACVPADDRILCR
Put plainly: ELISA, Ab 0.005 µg/ml.

For test [6], the target named is T1, Human Id1: Histidine. Put plainly: ELISA, Ab 0.025 µg/ml. Here is the method:
(§1) 1. Dispense 100 μL of antibody diluent, diluted rabbit monoclonal human Id3, and mouse/human Id3 hybridoma supernatants into appropriate wells. […] 2. Incubate at room temperature with mechanical shaking at 750 rpm for 90 minutes. [0165] 3. Remove the incubation mixture by flicking plate content into an appropriate waste container followed by rinsing the wells 5 times with distilled water. [0166] 4. Strike the wells sharply onto absorbent paper or paper towels to remove all residual water droplets. [0167] 5. Dispense 100 μL of 1:50,000 Goat Anti-Rabbit IgG-HRP Conjugate Reagent into each well. Gently mix for 5 seconds. [0168] 6. Incubate at room temperature with mechanical shaking at 750 rpm for 90 minutes. [0169] 7. Repeat procedures 3 and 4. [0170] 8. Dispense 100 μL of TMB Reagent into each well. Gently mix for 5 seconds. [0171] 9. Incubate at room temperature with mechanical shaking at 750 rpm for 20 minutes. […] 10. Add 100 μL of Stop Solution (1N HCl) into each well. [0173] 11. Gently mix for 10 seconds to ensure a complete mixing. [0174] 12. Read optical density at A450 nm.
(§2) Cross-reactivity of rabbit monoclonal anti-mouse/human Id3 (clone #6-1) and commercial rabbit polyclonal antibody (Santa Cruz Biotechnology) were determined according to the procedures of Example 9.

For test [7], the target named is T2, Mouse Id2: Histidine. In words: ELISA, Ab 0.025 µg/ml. Here is the method:
as §1, §2

In test [8] the target is T6, Human Id2: Histidine (human, UniProt Q02363 1-134, limits assumed).
T6 construct: Fusion protein made in E. coli from vector pGW07; also called h-Id2: His; not shown: His tag
T6 sequence (looked up): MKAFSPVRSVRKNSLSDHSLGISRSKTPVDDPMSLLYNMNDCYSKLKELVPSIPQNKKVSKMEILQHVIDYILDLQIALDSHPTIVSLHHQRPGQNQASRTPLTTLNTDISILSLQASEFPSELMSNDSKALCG
Put plainly: ELISA, Ab 0.025 µg/ml. The protocol:
as §1, §2

Test [9] deals with T3, Mouse Id3: Histidine. In words: ELISA, Ab 0.025 µg/ml. Here is the method: as §1, §2
The target in test [10] is T4, Human Id3: Histidine. In words: ELISA, Ab 0.025 µg/ml. The protocol:
as §1, §2

Test [11] addresses T5, Mouse Id1: Histidine. Put plainly: ELISA, Ab 0.025 µg/ml. The protocol: as §1, §2
Test [12] has as its target T1, Human Id1: Histidine. In words: ELISA, Ab 0.050 µg/ml.
The target of test [13] is T2, Mouse Id2: Histidine. Put plainly: ELISA, Ab 0.050 µg/ml.
Test [14] concerns the target T6, Human Id2: Histidine. In words: ELISA, Ab 0.050 µg/ml.
The target of test [15] is T3, Mouse Id3: Histidine. Put plainly: ELISA, Ab 0.050 µg/ml.
The target of test [16] is T4, Human Id3: Histidine. In words: ELISA, Ab 0.050 µg/ml.
Test [17] has as its target T5, Mouse Id1: Histidine. Put plainly: ELISA, Ab 0.050 µg/ml.

A450 data for one molecule are collected here from patent US20070178531A1 (BIOCHECK, published 2007).

B1: rabbit monoclonal anti-mouse/human Id3, clone #BCH-4/#6-1 (antibody, V domains shown)
VH: QSVEESGGRLVTPGTPLTLTCTASGFSLSNVYIHWVRQAPGKGLEWIGYISDGDTARYATWAKGRFTISKTSSTTVNLKMTSLTTEDTATYFCARQGFNIWGPGTLVTVSL
VL: AVLTQTPSPVSAAVGGTVSISCQSSQSVWNNNWLSWFQQKPGQPPKLLIYETSKLESGVPSRFKGSGSGTQFTLTISDVQCDDAATYYCLGGYWTTSDNNVFGGGTEVVVK
notes: Rabbit IgG from a rabbit hybridoma; also called m/h Id3 MoAb 6-1
With B1, the A450 in test [1] was found to be 0.075 A450; in [2] it was 0.073 A450; in test [3], 0.295 A450; in [4], 0.248 A450; in test [5], 0.076 A450; in test [6], 0.073 A450. The A450 in test [7] came out at 0.076 A450; in test [8], 0.088 A450; in test [9], 1.15 A450; in [10], 1.01 A450; in [11], 0.072 A450; in [12], 0.091 A450. In addition, the A450 in test [13] came out at 0.093 A450; in [14] it was 0.086 A450; in test [15], 1.72 A450; in [16], 1.52 A450; in [17], 0.093 A450.
